According to article PMC10620216:

Molecular target: anti-StrepTagII pentameric IgM with J-chain
Experiment: mass photometry; Refeyn OneMP, in PBS, measurement concentrations typically around 5–20 nM, recorded for 120 s; oligomeric state of the antibody in solution

B1: anti-StrepTagII pentameric IgM with J-chain (antibody, V domains shown)
VH: EVQLEQSGPELVKPGASVKMSCKASGYTFTNYYMKWVKQSHGKSLEWIGDLNPNNGDTFYNQKFKGKATLTVDKSSNTAYMQLNSLTSEDSAVYYCARTGRYEENAMDYWGQGTSVTVSS
VL: ELVMTQSPASLAVSLGQRATISCRASESVDSYGKSFMHWYQLKPGQPPKLLIYRASNLESGVPARFSGSGSRTDFTLTIDPVEADDAATYYCQQNNEDPWTFGGGTKLEIK
What does the source list for B1?
percent (m/m) of IgM in pentameric configuration: 85 % (m/m); stoichiometry N: 5
